Reference: patent US20120282269A1 (Boehringer Ingelheim, published 2012)
Values joined by “and” are separate entries in the source; they are usually repeats but may differ in a detail not shown here. Equal entries are not always repeated. Where two headings read alike, the source gives them in different places.

T1: natural human IL-23 from activated THP-1 cells (human, UniProt P29460 23-328)
T1 sequence 1: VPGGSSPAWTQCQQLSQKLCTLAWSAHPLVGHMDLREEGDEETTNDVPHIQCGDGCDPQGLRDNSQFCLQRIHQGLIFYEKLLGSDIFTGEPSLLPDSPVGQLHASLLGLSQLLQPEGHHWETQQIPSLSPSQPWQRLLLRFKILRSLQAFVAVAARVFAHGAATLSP
T1 sequence 2: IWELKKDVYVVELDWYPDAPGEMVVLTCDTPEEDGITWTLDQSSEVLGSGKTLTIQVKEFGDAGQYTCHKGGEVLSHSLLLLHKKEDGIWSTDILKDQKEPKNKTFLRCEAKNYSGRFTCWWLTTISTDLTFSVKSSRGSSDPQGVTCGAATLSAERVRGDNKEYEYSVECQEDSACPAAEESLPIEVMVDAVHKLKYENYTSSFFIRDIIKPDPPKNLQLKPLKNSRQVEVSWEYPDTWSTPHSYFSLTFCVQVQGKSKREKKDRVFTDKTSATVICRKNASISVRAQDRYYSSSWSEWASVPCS

T2: recombinant human IL-23 (human, UniProt P29460 23-328)
T2 sequence 1: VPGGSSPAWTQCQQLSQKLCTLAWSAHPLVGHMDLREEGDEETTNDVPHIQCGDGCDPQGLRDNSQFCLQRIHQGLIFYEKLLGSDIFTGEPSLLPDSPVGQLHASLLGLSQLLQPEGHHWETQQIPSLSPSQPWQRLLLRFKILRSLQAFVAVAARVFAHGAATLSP
T2 sequence 2: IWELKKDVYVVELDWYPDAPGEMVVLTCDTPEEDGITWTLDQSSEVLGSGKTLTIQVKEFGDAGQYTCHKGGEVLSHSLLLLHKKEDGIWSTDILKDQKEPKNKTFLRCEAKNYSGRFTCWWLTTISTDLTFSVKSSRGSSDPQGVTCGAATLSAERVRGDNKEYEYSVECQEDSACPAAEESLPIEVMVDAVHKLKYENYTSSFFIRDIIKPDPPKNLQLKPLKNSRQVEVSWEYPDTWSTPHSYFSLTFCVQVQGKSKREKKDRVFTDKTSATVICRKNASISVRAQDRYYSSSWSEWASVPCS

T3: human IL-12 (human, UniProt P29459 23-219; P29460 23-328)
T3 sequence (looked up) 1: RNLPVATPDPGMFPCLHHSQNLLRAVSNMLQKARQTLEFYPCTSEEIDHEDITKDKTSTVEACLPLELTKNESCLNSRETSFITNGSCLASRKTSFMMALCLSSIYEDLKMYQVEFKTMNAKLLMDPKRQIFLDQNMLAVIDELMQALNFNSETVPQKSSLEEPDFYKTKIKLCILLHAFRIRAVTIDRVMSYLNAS
T3 sequence (looked up) 2: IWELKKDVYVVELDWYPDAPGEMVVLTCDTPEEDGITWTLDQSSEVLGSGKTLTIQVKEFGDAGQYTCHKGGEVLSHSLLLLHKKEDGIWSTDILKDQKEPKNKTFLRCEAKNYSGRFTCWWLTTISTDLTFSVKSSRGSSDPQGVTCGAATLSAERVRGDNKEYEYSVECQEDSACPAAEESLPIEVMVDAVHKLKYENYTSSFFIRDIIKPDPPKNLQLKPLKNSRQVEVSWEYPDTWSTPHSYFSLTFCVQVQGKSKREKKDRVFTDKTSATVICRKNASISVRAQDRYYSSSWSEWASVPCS


Assays:
Test in all cases: cell-based or functional assay
[1] = target: T1, natural human IL-23 from activated …
recombinant human IL-23 [2] = target: T2, recombinant human IL-23
human IL-12 = target: T3, human IL-12
recombinant human IL-23 [3] = target: T2, recombinant human IL-23; remark: listed apart in the source
[4] = target: natural human IL-23 from activated THP-1 cells (human) (UniProt P29460)
[5] = target: recombinant human IL-23 (human) (UniProt P29460)
recombinant human IL-23 [6] = target: T2, recombinant human IL-23; remark: listed apart in the source

IC50, inhibition of IL-17 production from IL-23 stimulated mouse splenocytes [1]	IC50, inhibition of IL-17 production from IL-23 stimulated mouse splenocytes (recombinant human IL-23 [2])	Average pg/ml IFN-γ +/- Standard Deviation, human PHA-derived T cell blasts with 1 ng/ml IL-12 (no antibody: 532 +/- 51; unstimulated: 87 +/- 7) (human IL-12) [pg/mL]	IC50, inhibition of IL-23 induced STAT3 phosphorylation in human DB cells (recombinant human IL-23 [3])	IC50, inhibition of IL-17 production from IL-23 stimulated mouse splenocytes [4]	IC50, inhibition of IL-23 induced STAT3 phosphorylation in human DB cells [5]	IC50, inhibition of IL-17 production from IL-23 stimulated mouse splenocytes (recombinant human IL-23 [6])	Binder
1 pM	5 pM and 15 pM	497					Antibody A (antibody, human IgG1, kappa, L234A L235A, V domains shown) VH: QVQLVQSGAEVKKPGSSVKVSCKASGYTFTDQTIHWMRQAPGQGLEWIGYIYPRDDSPKYNENFKGKVTITADKSTSTAYMELSSLRSEDTAVYYCAIPDRSGYAWFIYWGQGTLVTVSS VL: DIQMTQSPSSLSASVGDRVTITCKASRDVAIAVAWYQQKPGKVPKLLIYWASTRHTGVPSRFSGSGSRTDFTLTISSLQPEDVADYFCHQYSSYPFTFGSGTKLEIKR
133 pM and 125 pM	236 pM and 225 pM and 614 pM and 458 pM	539	158 pM				Antibody D (antibody, human IgG1, kappa, L234A L235A, V domains shown) VH: QVQLVQSGAEVKKPGSSVKVSCKASGFTFTDQTIHWVRQAPGQGLEWMGYIYPRDDSPKYNENFKGKVTLTADKSTSTAYMELSSLRSEDTAVYYCAIPDRSGYAWFIYWGQGTLVTVSS VL: DIQMTQSPSSLSASVGDRVTITCKASRDVAIAVAWYQQKPGKVPKLLLFWASTRHTGVPDRFSGSGSGTDFTLTISSLQPEDLADYYCHQYSSYPFTFGQGTKLEIKR
16 pM and 32 pM		495	132 pM and 80 pM				Antibody C (antibody, human IgG1, kappa, L234A L235A, V domains shown) VH: QVQLVQSGAEVKKPGSSVKVSCKASGYTFTDQTIHWMRQAPGQGLEWIGYIYPRDDSPKYNENFKGKVTITADKSTSTAYMELSSLRSEDTAVYYCAIPDRSGYAWFIYWGQGTLVTVSS VL: DIQMTQSPSSLSASVGDRVTITCKASRDVAIAVAWYQQKPGKVPKLLLFWASTRHTGVPDRFSGSGSGTDFTLTISSLQPEDLADYYCHQYSSYPFTFGQGTKLEIKR
9 pM and 8 pM		537	73 pM and 84 pM				Antibody B (antibody, human IgG1, kappa, L234A L235A, V domains shown) VH: QVQLVQSGAEVKKPGSSVKVSCKASGFTFTDQTIHWVRQAPGQGLEWMGYIYPRDDSPKYNENFKGKVTLTADKSTSTAYMELSSLRSEDTAVYYCAIPDRSGYAWFIYWGQGTLVTVSS VL: DIQMTQSPSSLSASVGDRVTITCKASRDVAIAVAWYQQKPGKVPKLLIYWASTRHTGVPSRFSGSGSRTDFTLTISSLQPEDVADYFCHQYSSYPFTFGSGTKLEIKR
				93 pM and 44 pM	163 pM and 438 pM		Antibody C1273 (disclosed in WO 2007/005955) (antibody, from another filing, V domains shown) VH: DVNLVESGGGLVKPGGSLKLSCAASGFTFSSYTMSWVRQTPEKRLEWVATISSGGTYTYYPDSVKGRFTISRDNAKNTLYLQMSSLKSEDTAMFYCTRDNHAYDRGPFFDYWGQGATLTVSS VL: DIVMSQSPSSLVVSVGEKVTMSCKSSQNLFYRSNQKNHLAWYQQKPGQSPTLLIYWTSTRESGVPDRFTGSGSGTDFTLTISRVKAEDLAVYYCQQYYSYPPTFGGGTKLEIK
	31 pM	511					Chimeric 18E5 (antibody, V domains shown) VH: EVQLQQSGPELVKPGAAVKMSCKASGYTFTRYLIHWVKQKPGQGLEWIGYINPYNDGTKYNEKFKGKATLTSDKSSSTAYMELSSLTSEDSAVYYCTSNWDLDYWGQGTTLTVSS VL: DIVMTQSPATLSVTPGDRVSLSCRASQSISDYLYWYQQKSHESPRLLIKFASQSISGIPSRFTGSGSGSDFTLSIDSVEPDDVGVFFCQNGHSFPFTFGGGTKLEIK
95 pM and 102 pM	404 pM						Chimeric 24A5 (antibody, V domains shown) VH: EVQLQQSGPELVKPGASVKMSCKASGYTFTTSIMHWVKQKPGQGLEWIGYINPYDDVTKYNEKFKGKATLTSDKSSSTAYMELSSLTSEDSAVYYCVRRWDEAYWGQGTLVTVSA VL: DIVMTQSPATLSVTPGNRVSLSCRASQSISDYLHWYQQKSHESPRLLIKYASQSISGIPSRFSGSGSGSNFTLSINSVEPEDVGVYYCQNGHSFPFTFGSGTKLEIK
456 pM	510 pM						34D9 (antibody, V domains shown) VH: EVQLQQSGPELVKPGASVKIPCKASGYTFTDYNMDWVKKSHGKSLEWIGDINPHNGGTIYNQKFKGKATLTVDKSSSTAHMELRSLTSEDTAVYYCARNYYGSSYGWYFDVWGTGTTVTVSS VL: DIMMTQSHKFMSTSVGDRVSITCKASQDVGNAVVWYQQKPGQSPKLLIYWASTRHIGVPDRFTGSGSGTDFTLTITNVQSEDLADYFCQQYSSYLTFGAGTKLELK
						1600 pM and 806 pM and 1300 pM	Antibody 6H12 (disclosed in WO 2007/027714) (antibody, from another filing, V domains shown) VH: EVHLQQSGPELVKPGASVKMSCKASGYTFNRYLIHWVKQKPGQGLEWIGYINPNNDGTNYNEKFKGKATLTSDKSSSTAYMELSSLTSEDSAVYYCAANWDQAYWGQGTLVTVSA VL: DIVMTQSPATLSVTPGDRVSLSCRASQSISDYLHWYQQKSHESPRLLIKYTSQSISGIPSRFSGSGSGSDFTLSINSVEPEDVGVYYCQNGHSFPFTFGSGTKLEIKR
5 pM and 2 pM and 6 pM and 3 pM	26 pM and 37 pM and 57 pM	523					Chimeric 6B8 (antibody, IgG1, V domains shown) VH: QVQLQQSDAELVKPGTSVKTSCKISGNTFTDQTIHWMKQRPEQGLEWIGYIYPRDDSPKYNENFKGKATLTADKSSSTAYMQLNSLTSEDSAVYFCAIPDRSGYAWFIYWGQGTLVTVSS VL: DIVMTQSHKFLSTSVGDRVTITCKASRDVAIAVAWYQQKPGQSPKLLLFWASTRHTGVPDRFTGSGSRTDFTLTISNVQSEDLADYFCHQYSSYPFTFGSGTKLEIK
